{"source": "paper PMC4775226", "about": "“Active and water-soluble form of lipidated Wnt protein is maintained by a serum glycoprotein afamin/α-albumin” (eLife, 2016)", "key": {"Tg-tagged human afamin": {"target": "T1, Tg-tagged human afamin (human, UniProt P43652 22-599)", "T1 construct": "human afamin with a long (36 residues) N-terminal tag peptide; cDNA was a gift from Luc Bélanger; built by the same strategy as the tagged Wnts (tag, TEV site); also called Tg-hAFM; Tg-AFM; source: Expi293F cells, transiently co-transfected with PA-tagged Wnts, in serum-free culture medium; not shown: TARGET (Tg) tag, N-terminal, kept", "T1 sequence (looked up)": "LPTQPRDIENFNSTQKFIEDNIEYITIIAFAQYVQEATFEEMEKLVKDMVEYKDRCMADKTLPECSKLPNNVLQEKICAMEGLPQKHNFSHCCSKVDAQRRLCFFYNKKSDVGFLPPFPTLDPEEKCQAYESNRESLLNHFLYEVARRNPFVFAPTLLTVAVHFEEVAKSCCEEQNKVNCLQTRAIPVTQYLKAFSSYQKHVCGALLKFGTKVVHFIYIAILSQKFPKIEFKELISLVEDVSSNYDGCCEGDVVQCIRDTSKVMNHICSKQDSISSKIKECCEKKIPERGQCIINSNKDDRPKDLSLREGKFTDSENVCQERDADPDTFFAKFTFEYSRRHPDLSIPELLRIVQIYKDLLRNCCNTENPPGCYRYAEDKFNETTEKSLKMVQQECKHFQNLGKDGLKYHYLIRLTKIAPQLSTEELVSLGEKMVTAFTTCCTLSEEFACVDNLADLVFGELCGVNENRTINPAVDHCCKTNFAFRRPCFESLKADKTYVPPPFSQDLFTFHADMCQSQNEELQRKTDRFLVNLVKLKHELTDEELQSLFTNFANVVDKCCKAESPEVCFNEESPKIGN", "experiment": "co-IP; anti-Tg antibody P20.1-Sepharose, serum-free culture media of Expi293F cells co-transfected with Tg-hAFM and PA-tagged human Wnts; immunoblot with biotinylated NZ-1", "details": "partners not purified"}, "[1]": {"target": "T2, TARGET-tagged mouse Wnt3a (mouse, UniProt P27467 19-352)", "T2 construct": "Construct design (N-terminal region from the initiation Met) is in Supplementary file 1; also called Tg-Wnt3a; tagged Wnt3a; source: purified on P20.1-Sepharose (peptide elution), SEC; not shown: TARGET (Tg) tag, N-terminal, kept", "T2 sequence (P27467 19-352)": "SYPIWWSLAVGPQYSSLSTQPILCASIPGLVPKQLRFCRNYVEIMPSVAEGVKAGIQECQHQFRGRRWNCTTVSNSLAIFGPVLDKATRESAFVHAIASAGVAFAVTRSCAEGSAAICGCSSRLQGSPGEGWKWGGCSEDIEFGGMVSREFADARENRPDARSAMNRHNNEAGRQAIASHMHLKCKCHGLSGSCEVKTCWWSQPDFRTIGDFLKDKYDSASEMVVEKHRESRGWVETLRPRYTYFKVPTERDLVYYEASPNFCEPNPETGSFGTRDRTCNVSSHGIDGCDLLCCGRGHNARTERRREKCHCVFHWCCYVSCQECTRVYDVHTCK", "experiment": "SEC; immunoaffinity-purified Wnt preparation on Superdex 200 10/300GL in TBS, no detergent; fractions on nonreducing SDS-PAGE, Coomassie stain and immunoblots", "details": "both partners purified"}}, "data": [{"binder": "PA-tagged human Wnt3 (natural protein, UniProt P56703 22-355, looked up) GYPIWWSLALGQQYTSLGSQPLLCGSIPGLVPKQLRFCRNYIEIMPSVAEGVKLGIQECQHQFRGRRWNCTTIDDSLAIFGPVLDKATRESAFVHAIASAGVAFAVTRSCAEGTSTICGCDSHHKGPPGEGWKWGGCSEDADFGVLVSREFADARENRPDARSAMNKHNNEAGRTTILDHMHLKCKCHGLSGSCEVKTCWWAQPDFRAIGDFLKDKYDSASEMVVEKHRESRGWVETLRAKYSLFKPPTERDLVYYENSPNFCEPNPETGSFGTRDRTCNVTSHGIDGCDLLCCGRGHNTRTEKRKEKCHCIFHWCCYVSCQECIRIYDVHTCK", "values": [{"measurement": "binding result", "setting": "Tg-tagged human afamin", "value": "binds"}]}, {"binder": "bovine afamin from the serum of the culture medium (natural protein, UniProt G3MYZ3 22-604, looked up, bovine afamin, serum-derived; Glycoprotein of about 70 kDa; also called AFM; α-albumin; source: endogenous, fetal calf serum in the culture medium) LPTQPQDVDDVRITQKFIDDNIGYITIIAFAQYIQEASFEEVEMLVKAMTEYRDKCLADRTLPECSKLANEVLLENICAMEGLPQKYNFSHCCHKVDFERRLCFFHNKKADIGLLPPLPTLDPEEKCQTYKNNRESFLNNYVYEVSRRNPFVFAPTLLTVAARFEEMTKTCCEEQEKANCFQTKAEPFIYYLKALSSYQKNACRALMKFGRQILQSINIAILSQKFPKIGFKQLTSLLEDVSSKYDGCCEGDVVQCIRGRSKVMSHICSKQDSISSKIKDCCEKKIPERGECIIYSNKDDRPNDLSLREAKFIESDNVCEKRDADQANFMAEFLYEYSRRHPELSTPELLRIAKVYKDLLKECCNMENPPECYRHAENRFNETTEKSLKIVQRECEHFQNLGKDDLKYHYLINLTKLAPQLSTEELTFLGKEMVMALTTCCTLSEEFACVDNLVDLVLGELCGINENRNINPAVDHCCKTNFAFRRSCFESLEADKTYVPPSTSQGLFTFHADLCQAHNEELQRKKDRFLVNLVKLKPELAGEELWSLLADFTNVVEKCCKAQEPEACFKEESPKLAAKSQAA", "values": [{"measurement": "stoichiometry N", "setting": "[1]", "value": 1}]}]}
